According to patent publication US20060104978A1, “Methods and compositions for PDGF-C activation and inhibition” (LUDWIG INSTITUTE FOR CANCER RESEARCH, priority 2003, published 2006):

B1: PDCUBPC: chimeric PDGF-C carrying the CUB domain from PDGF-D and the hinge region and growth factor domain of PDGF-C (protein)
chain: RDTSATPQSASIKALRNANLRRDESNHLTDLYRRDETIQVKGNGYVQSPRFPNSYPRNLLLTWRLHSQENTRIQLVFDNQFGLEEAENDICRYDFVEVEDISETSTIIRGRWCGHKEVPPRIKSRTNQIKITFKSDDYFVAKPGFKIYYSLLEDQFTEAVSPSVLPPSALPLDLLNNAITAFSTLEDLIRYLEPERWQLDLEDLYRPTWQLLGKAFVFGRKSRVVDLNLLTEEVRLYSCTPRNFSVSIREELKRTDTIFWPGCLLVKRCGGNCACCLHNCNECQCVPSKVTKKYHEVLQLRPKTGVRGLHKSLTDVALEHHEECDCVCRGSTGG
B2: α2-anti-plasmin: specific plasmin inhibitor (#4030, American Diagnostica Inc.) (protein, UniProt P08697 40-491, looked up)
Alpha-2-antiplasmin: NQEQVSPLTLLKLGNQEPGGQTALKSPPGVCSRDPTPEQTHRLARAMMAFTADLFSLVAQTSTCPNLILSPLSVALALSHLALGAQNHTLQRLQQVLHAGSGPCLPHLLSRLCQDLGPGAFRLAARMYLQKGFPIKEDFLEQSEQLFGAKPVSLTGKQEDDLANINQWVKEATEGKIQEFLSGLPEDTVLLLLNAIHFQGFWRNKFDPSLTQRDSFHLDEQFTVPVEMMQARTYPLRWFLLEQPEIQVAHFPFKNNMSFVVLVPTHFEWNVSQVLANLSWDTLHPPLVWERPTKVRLPKLYLKHQMDLVATLSQLGLQELFQAPDLRGISEQSLVVSGVQHQSTLELSEVGVEAAAATSIAMSRMSLSSFSVNRPFLFFIFEDTTGLPLFVGSVRNPNPSAPRELKEQQDSPGNKDFLQSLKGFPRGDKLFGPDLKLVPPMEEDYPQFGSPK

Tests used:
[1] = tested on: tPA; assay: Cotransfection assay in COS-1 cells: PDGF-CC forms and mutants coexpressed with tPA; assay type: cell-based, human; details: COS-1 cotransfection with tPA, immunoblot; cleavage site mutant made from mouse PDGF-C cDNA
Sequence of tPA (P00750 36-562): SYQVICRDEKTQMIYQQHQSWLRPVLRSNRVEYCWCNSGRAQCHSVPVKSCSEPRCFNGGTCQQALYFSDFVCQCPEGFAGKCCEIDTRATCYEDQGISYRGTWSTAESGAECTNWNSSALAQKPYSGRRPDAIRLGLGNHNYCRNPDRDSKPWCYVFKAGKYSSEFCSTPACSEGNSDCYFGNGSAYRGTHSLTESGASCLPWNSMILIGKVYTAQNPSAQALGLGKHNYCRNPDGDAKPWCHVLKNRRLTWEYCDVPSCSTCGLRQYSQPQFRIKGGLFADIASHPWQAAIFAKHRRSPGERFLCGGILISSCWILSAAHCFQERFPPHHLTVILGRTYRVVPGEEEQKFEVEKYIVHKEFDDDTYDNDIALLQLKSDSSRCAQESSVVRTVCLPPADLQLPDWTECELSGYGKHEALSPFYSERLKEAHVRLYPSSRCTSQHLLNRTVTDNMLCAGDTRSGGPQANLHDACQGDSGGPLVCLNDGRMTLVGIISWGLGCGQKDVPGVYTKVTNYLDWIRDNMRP
Text: The structural requirements for recognition of full-length PDGF-CC as a substrate for tPA were mapped by analysis of several mutated forms of PDGF-CC using the co-transfection assay. The mutants of PDGF-CC included a chimeric form of PDGF-C carrying the CUB domain from PDGF-D and the hinge region and growth factor domain of PDGF-C (mutant PDCUBPC), and several truncation mutants lacking the CUB domain and increasing parts of the hinge region (schematically illustratrated in FIG. 6A). All mutants were properly expressed in transfected COS-1 cells, formed disulfide-linked dimers (data not shown), and were efficiently secreted, except truncation mutant Δ190 that was expressed at a lower level in the conditioned medium (FIG. 6B).
A conserved site of four amino acids containing three basic amino-acid residues (amino-acid residues -R-K-S-R-) was previously identified as a potential site for proteolytic activation of latent PDGF-CC (Li et al, 2000). […]
To test the endogenous expression of PDGF-CC, subconfluent AG1523 cells and primary fibroblast cultures were cultured in serum-free DMEM overnight. […] In the case of the primary cultures, total protein concentration was measured and normalized (Bradford, 1976). […] PDGF-C and PDGF-D were detected by immunoblotting using affinity-purified polyclonal rabbit antibodies against PDGF-C (Li et al, 2000) and PDGF-D (Bergsten et al, 2001), respectively. […]

[2] = target: T1, latent PDGF-CC (Homo sapiens, UniProt Q9NRA1); assay: Cotransfection assay in COS-1 cells: protease plus full-length PDGF-C; assay type: cell-based; details: α2-anti-plasmin 10 ng-1 μg added to the cotransfection medium for 24 hours
T1 construct: cotransfected with full-length PDGF-C (Li et al, 2000), full-length PDGF-D (Bergsten et al, 2001); expressed in transfected cells; host or cells: COS-1 cells
T1 sequence (Q9NRA1 23-345): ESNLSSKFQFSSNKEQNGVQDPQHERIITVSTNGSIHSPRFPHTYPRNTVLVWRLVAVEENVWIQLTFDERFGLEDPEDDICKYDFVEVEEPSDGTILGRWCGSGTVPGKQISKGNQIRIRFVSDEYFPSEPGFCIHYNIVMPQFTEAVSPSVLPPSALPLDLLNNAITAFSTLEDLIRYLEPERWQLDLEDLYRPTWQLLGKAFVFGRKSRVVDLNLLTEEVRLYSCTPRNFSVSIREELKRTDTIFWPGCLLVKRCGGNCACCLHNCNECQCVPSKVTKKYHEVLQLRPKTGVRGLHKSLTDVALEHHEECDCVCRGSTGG
Text: A cotransfection assay was established to identify serine proteases able to cleave and activate latent PDGF-CC. Expression plasmids encoding the relevant enzymes and full-length PDGF-C were cotransfected into COS-1 cells, and aliquots of the conditioned media from the transfectants were subjected to SDS-PAGE and immunoblotting using antibodies to the growth factor domain of PDGF-C. […] As a specificity control, the ability of tPA and NT to use full-length PDGF-DD as the substrate in the cotransfection assay was analysed. […] One difference in the latter results, as compared with the results from the cotransfection assay, was that purified tPA generated a second intermediate species of 32 kDa using latent PDGF-CC as the substrate. It is possible that this intermediate is the result of digestion by plasmin contamination in the tPA preparation, since the size of the fragment is similar to that of plasmincleaved PDGF-CC previously reported (Li et al, 2000). […]
To test the endogenous expression of PDGF-CC, subconfluent AG1523 cells and primary fibroblast cultures were cultured in serum-free DMEM overnight. […] In the case of the primary cultures, total protein concentration was measured and normalized (Bradford, 1976). […]

Molecule	cleavage of the PDGF-CC form by coexpressed tPA [1]	effect on release of core PDGF-C by tPA [2]
B1	neither chimeric PDCUBPC, nor the truncation mutants lacking the CUB domain, were efficiently cleaved	–
B2	–	had no effect on the release of core PDGF-C by tPA
